Experimental data reported in patent US10934559B2, “Hypersensitive ABA receptors” (The Regents of the University of California, priority 2014, dated 2021).

B1: I110S: PYR1 mutant I110S, SEQ ID NO:129 (protein)
chain: MPSELTPEERSELKNSIAEFHTYQLDPGSCSSLHAQRIHAPPELVWSIVRRFDKPQTYKHFIKSCSVEQNFEMRVGCTRDVIVISGLPANTSTERLDILDDERRVTGFSSIGGEHRLTNYKSVTTVHRFEKENRIWTVVLESYVVDMPEGNSEDDTRMFADTVVKLNLQKLATVAEAMARNSGDGSGSQVT
modifications: synthetic Arabidopsis PYR1 mutant I110S
B2: E141C: PYR1 mutant E141C, SEQ ID NO:130 (protein)
chain: MPSELTPEERSELKNSIAEFHTYQLDPGSCSSLHAQRIHAPPELVWSIVRRFDKPQTYKHFIKSCSVEQNFEMRVGCTRDVIVISGLPANTSTERLDILDDERRVTGFSIIGGEHRLTNYKSVTTVHRFEKENRIWTVVLCSYVVDMPEGNSEDDTRMFADTVVKLNLQKLATVAEAMARNSGDGSGSQVT
modifications: synthetic Arabidopsis PYR1 mutant E141C
B3: E141Y: PYR1 mutant E141Y, SEQ ID NO:138 (protein)
chain: MPSELTPEERSELKNSIAEFHTYQLDPGSCSSLHAQRIHAPPELVWSIVRRFDKPQTYKHFIKSCSVEQNFEMRVGCTRDVIVISGLPANTSTERLDILDDERRVTGFSIIGGEHRLTNYKSVTTVHRFEKENRIWTVVLYSYVVDMPEGNSEDDTRMFADTVVKLNLQKLATVAEAMARNSGDGSGSQVT
modifications: synthetic Arabidopsis PYR1 mutant E141Y
B4: E141M: PYR1 mutant E141M, SEQ ID NO:133 (protein)
chain: MPSELTPEERSELKNSIAEFHTYQLDPGSCSSLHAQRIHAPPELVWSIVRRFDKPQTYKHFIKSCSVEQNFEMRVGCTRDVIVISGLPANTSTERLDILDDERRVTGFSIIGGEHRLTNYKSVTTVHRFEKENRIWTVVLMSYVVDMPEGNSEDDTRMFADTVVKLNLQKLATVAEAMARNSGDGSGSQVT
modifications: synthetic Arabidopsis PYR1 mutant E141M
B5: E141V: PYR1 mutant E141V, SEQ ID NO:136 (protein)
chain: MPSELTPEERSELKNSIAEFHTYQLDPGSCSSLHAQRIHAPPELVWSIVRRFDKPQTYKHFIKSCSVEQNFEMRVGCTRDVIVISGLPANTSTERLDILDDERRVTGFSIIGGEHRLTNYKSVTTVHRFEKENRIWTVVLVSYVVDMPEGNSEDDTRMFADTVVKLNLQKLATVAEAMARNSGDGSGSQVT
modifications: synthetic Arabidopsis PYR1 mutant E141V
B6: E141I: PYR1 mutant E141I, SEQ ID NO:131 (protein)
chain: MPSELTPEERSELKNSIAEFHTYQLDPGSCSSLHAQRIHAPPELVWSIVRRFDKPQTYKHFIKSCSVEQNFEMRVGCTRDVIVISGLPANTSTERLDILDDERRVTGFSIIGGEHRLTNYKSVTTVHRFEKENRIWTVVLISYVVDMPEGNSEDDTRMFADTVVKLNLQKLATVAEAMARNSGDGSGSQVT
modifications: synthetic Arabidopsis PYR1 mutant E141I
B7: A160C: PYR1 mutant A160C, SEQ ID NO:139 (protein)
chain: MPSELTPEERSELKNSIAEFHTYQLDPGSCSSLHAQRIHAPPELVWSIVRRFDKPQTYKHFIKSCSVEQNFEMRVGCTRDVIVISGLPANTSTERLDILDDERRVTGFSIIGGEHRLTNYKSVTTVHRFEKENRIWTVVLESYVVDMPEGNSEDDTRMFCDTVVKLNLQKLATVAEAMARNSGDGSGSQVT
modifications: synthetic Arabidopsis PYR1 mutant A160C
B8: E141L: PYR1 mutant E141L, SEQ ID NO:132 (protein)
chain: MPSELTPEERSELKNSIAEFHTYQLDPGSCSSLHAQRIHAPPELVWSIVRRFDKPQTYKHFIKSCSVEQNFEMRVGCTRDVIVISGLPANTSTERLDILDDERRVTGFSIIGGEHRLTNYKSVTTVHRFEKENRIWTVVLLSYVVDMPEGNSEDDTRMFADTVVKLNLQKLATVAEAMARNSGDGSGSQVT
modifications: synthetic Arabidopsis PYR1 mutant E141L
B9: F61L: PYR1 mutant F61L, SEQ ID NO:124 (protein)
chain: MPSELTPEERSELKNSIAEFHTYQLDPGSCSSLHAQRIHAPPELVWSIVRRFDKPQTYKHLIKSCSVEQNFEMRVGCTRDVIVISGLPANTSTERLDILDDERRVTGFSIIGGEHRLTNYKSVTTVHRFEKENRIWTVVLESYVVDMPEGNSEDDTRMFADTVVKLNLQKLATVAEAMARNSGDGSGSQVT
modifications: synthetic Arabidopsis PYR1 mutant F61L
B10: E141W: PYR1 mutant E141W, SEQ ID NO:137 (protein)
chain: MPSELTPEERSELKNSIAEFHTYQLDPGSCSSLHAQRIHAPPELVWSIVRRFDKPQTYKHFIKSCSVEQNFEMRVGCTRDVIVISGLPANTSTERLDILDDERRVTGFSIIGGEHRLTNYKSVTTVHRFEKENRIWTVVLWSYVVDMPEGNSEDDTRMFADTVVKLNLQKLATVAEAMARNSGDGSGSQVT
modifications: synthetic Arabidopsis PYR1 mutant E141W
B11: E141N: PYR1 mutant E141N, SEQ ID NO:134 (protein)
chain: MPSELTPEERSELKNSIAEFHTYQLDPGSCSSLHAQRIHAPPELVWSIVRRFDKPQTYKHFIKSCSVEQNFEMRVGCTRDVIVISGLPANTSTERLDILDDERRVTGFSIIGGEHRLTNYKSVTTVHRFEKENRIWTVVLNSYVVDMPEGNSEDDTRMFADTVVKLNLQKLATVAEAMARNSGDGSGSQVT
modifications: synthetic Arabidopsis PYR1 mutant E141N
B12: A160I: PYR1 mutant A160I, SEQ ID NO:140 (protein)
chain: MPSELTPEERSELKNSIAEFHTYQLDPGSCSSLHAQRIHAPPELVWSIVRRFDKPQTYKHFIKSCSVEQNFEMRVGCTRDVIVISGLPANTSTERLDILDDERRVTGFSIIGGEHRLTNYKSVTTVHRFEKENRIWTVVLESYVVDMPEGNSEDDTRMFIDTVVKLNLQKLATVAEAMARNSGDGSGSQVT
modifications: synthetic Arabidopsis PYR1 mutant A160I
B13: F61M: PYR1 mutant F61M, SEQ ID NO:125 (protein)
chain: MPSELTPEERSELKNSIAEFHTYQLDPGSCSSLHAQRIHAPPELVWSIVRRFDKPQTYKHMIKSCSVEQNFEMRVGCTRDVIVISGLPANTSTERLDILDDERRVTGFSIIGGEHRLTNYKSVTTVHRFEKENRIWTVVLESYVVDMPEGNSEDDTRMFADTVVKLNLQKLATVAEAMARNSGDGSGSQVT
modifications: synthetic Arabidopsis PYR1 mutant F61M
B14: E141T: PYR1 mutant E141T, SEQ ID NO:135 (protein)
chain: MPSELTPEERSELKNSIAEFHTYQLDPGSCSSLHAQRIHAPPELVWSIVRRFDKPQTYKHFIKSCSVEQNFEMRVGCTRDVIVISGLPANTSTERLDILDDERRVTGFSIIGGEHRLTNYKSVTTVHRFEKENRIWTVVLTSYVVDMPEGNSEDDTRMFADTVVKLNLQKLATVAEAMARNSGDGSGSQVT
modifications: synthetic Arabidopsis PYR1 mutant E141T

tested on: HAB1; assay: PYR1 mutant-HAB1 yeast two-hybrid assay under different ABA concentrations (X-gal staining); format: cell-based; conditions: lowest (+)-ABA concentration giving detectable X-gal staining; S. cerevisiae Y190 with pACT-HAB1; 30° C., 48 hours
Excerpt: The affinity of a receptor for a target ligand is typically determined by non-covalent interactions between ligand-binding residues and the ligand. Mutations in such residues can have negative, positive or neutral effects on the strength of the receptor—ligand interaction. The affinity of a receptor-ligand interaction is intrinsically correlated with the concentration of ligand required to elicit biological effects, with high affinity ligands requiring lower concentrations relative to low affinity ligands. A mutant receptor with increased affinity for a ligand can in some cases elicit greater biological effect relative to a wild type receptor, when both are activated under identical conditions by the same concentration of activating ligand. Thus, mutations that make a receptor hypersensitive to a ligand can be useful for engineering organisms that elicit stronger responses to the ligand relative to wild type. […] Based on these considerations, we set out to systematically establish specific ABA receptor mutations that increase ABA responsiveness. This was done by testing a collection of PYR1 variants with all possible single amino acid substitution mutations in ligand binding residues. Thus we conducted site-saturated mutagenesis of ABA-contacting residues, which we define as those that are within 5A or ABA or ABA-contacting water residues in available X-ray coordinates. This collection of mutants was constructed previously, as described in PCT Application No. PCT/US2012/043121 and Mosquna et al., Proc Natl Acad Sci USA 108: 20838-20843 (2011). This collection of mutants was made by mutagenizing a previously described pBD GAL-PYR1 template (Park, S.-Y., et al. Science 324, 1068-1071 ([…])). In response to ABA, this particular plasmid encodes a fusion protein that binds to a co-expressed GAL4 activation domain-HAB1 fusion protein, encoded by the plasmid pACT-HAB1. This binding reconstitutes a functional GAL4 transcriptional activator and subsequent transcription of a β-galactosidase reporter gene, which in turn enables colorimetric based detection of agonist promoted receptor-PP2C interaction when lysed cells are exposed to the substrate X-gal. The mutant clones were individually transformed into S. cerevisiae strain Y190 containing pACT-HAB1. Yeast transformants were selected for the presence of plasmids on synthetic dextrose (SD) agar plates lacking Leu and Trp (SD-LT) and examined for PP2C interactions by using X-gal staining to monitor β-gal reporter gene expression levels. Individual clones were arrayed into 96 well plates and then spotted onto SD-LT lawn (i.e. one-well) plates containing 0, 0.5 or 5.0 μM (+)-ABA. Each assay plate contained 95 mutant clones and one wild type PYR1 positive control clone. The spotted cells were cultured at 30° C. for 48 hours after which they were lysed by chloroform and stained with an X-gal solution, as previously described (Park, S.-Y., et al. (2009) Science 324, 1068-1071). […] After this initial screening exercise, all positives clones were retested on plates containing […] and stained for galactosidase activity as described above. Mutant clones showing detectable staining on 0.5 μM (+)-ABA or lower were scored as hypersensitive mutants. FIG. 1 depicts results of PYR1 mutant-HAB1 interactions as assayed in a yeast two-hybrid assay under different ABA concentrations, with darker spots indicating increased interaction.

Point of comparison: B14, “Minimal conc. For ABA response” value 0.5 µM. Against it:
- B1 — the same, 0.5 µM
- B2 — the same, 0.5 µM
- B3 — 2-fold lower, 0.25 µM
- B4 — 2-fold lower, 0.25 µM
- B5 — the same, 0.5 µM
- B6 — 2-fold lower, 0.25 µM
- B7 — 2-fold lower, 0.25 µM
- B8 — 2-fold lower, 0.25 µM
- B9 — 2-fold lower, 0.25 µM
- B10 — the same, 0.5 µM
- B11 — the same, 0.5 µM
- B12 — 2-fold lower, 0.25 µM
- B13 — 2-fold lower, 0.25 µM
